Experimental data from patent publication US11202837B2, “Biological materials and uses thereof” (Antikor Biopharma Limited, priority 2014, dated 2021).
Where a SMILES comes first, the peptide text is derived from it. [ ]: non-standard residue; d: D form. Dolaproine = CO[C@@H]([C@@H]1CCCN1)[C@@H](C)C(=O)O; Dil = CC[C@H](C)[C@H](NC)[C@@H](CC(=O)O)OC; NMeV = CN[C@H](C(=O)O)C(C)C

Assays:
[1] = test system: BT474 human breast carcinoma xenografts; assay: Tumour growth inhibition or eradication in BT474 xenograft model; type: in vivo; settings: free payload treated group
Experimental: Mice. […] The animals were fed ad libitum water (reverse osmosis, 1 ppm Cl), and NIH 31 Modified and Irradiated Lab Diet® consisting of 18.0% crude protein, 5.0% crude fat, and 5.0% crude fiber. The mice were housed on irradiated Enrich-o'cobs™ Laboratory Animal Bedding in static microisolators on a 12-hour light cycle at 20-22° C. (68-72° F.) and 40-60% humidity. Charles River Discovery Services North Carolina (CR Discovery Services, who carried out this contracted R&D) specifically complies with the recommendations of the Guide for Care and Use of Laboratory Animals with respect to restraint, husbandry, surgical procedures, feed and fluid regulation, and veterinary care.
Tumor weight may be estimated with the assumption that 1 mg is equivalent to 1 mm^3 of tumor volume.

HER2 = HER2 (Homo sapiens, UniProt P04626); assay: Biacore SPR binding to immobilised HER2; settings: compared to unmodified scFv
Experimental: The binding affinity against immobilised HER2 target antigen was determined by Biacore SPR compared to the unmodified scFv on a Biacore T200. A standard amine-coupling method was used to prepare all Biacore surfaces (CM5 or CM3), as follows. Flow cells were activated individually by injecting a freshly mixed solution of 0.2M EDC in 0.05 M NHS at 30 μl/min. […] Excess NHS ester was deactivated using a 1 M ethanolamine solution. To measure the kinetics of the antibody and conjugate on the HER2 chip, a […] serial dilution (typically at 5, 2.5, 1.25, 0.6 μg/ml or lower for free antibody and 20, 10, 5, 2.5 μg/ml for the conjugates), was injected for 160 s at 30 μl/min, allowing a 900-s dissociation phase. The dissociation time was extended to 3600 s for the highest concentration. Surfaces were regenerated with 45 s injection of MgCl2 8M.
To evaluate binding ability, manual runs were performed at 30 μl/min with a 60 s injection of the desired compound followed by 60 s waiting time and a 45 s of regeneration at 10 μl/min using MgCl2 8M. All data was analysed using the software, BIAEvaluation.

[2] = Concentration reached and storage stability of purified conjugates in buffer; type: physicochemical
[3] = Aggregation by HPLC size-exclusion chromatography; type: physicochemical; settings: purified or analysed conjugate vs unconjugated antibody
Experimental: Aggregation can be tested by analytical size-exclusion HPLC measuring the percentage of high molecular weight material compared to the conjugate eluting at a retention time characteristic of a monomeric conjugate.
Typically, 20 μg of protein was injected for analytical runs and 300 μg for semi-preparative runs.

U87 cells = assay: Cell killing assay (MTS), U87 cells; type: cell-based; settings: U87 Cells (HER2−), 96 hours, Table 51
Experimental: SKBr3, human breast cancer cell line, high HER2 expression levels, up to 1,000,000 receptors per cell [Lazar G A, et al Proc Natl Acad Sci USA. […] When confluency was 70-80%, cells were washed with PBS (2×10 ml) and incubated with trypsin for 5-7 min. Complete media was added and the cells were resuspended by pipetting. The cells were recovered by centrifugation (2 min, 2000 rpm), the supernatant was discarded, and the cells were resuspended in complete DMEM (5 ml). The cells were then counted using a haemocytometer and diluted accordingly. They were plated at 4500 cells/well (200 μl) using attachment factor and incubated overnight at 37° C., 5% CO2 in a humidified atmosphere. U87 is a non-HER2 expressing glioblastoma cell line and was grown in a similar way, plated at 1000 cells/well.
(§1) The cells were exposed to the various ADCs diluted in complete media for 96 hours at 37° C., 5% CO2 in a humidified atmosphere. Cell viability was measured using the Promega Aqueous Cell-titre-96™ aqueous one solution cell proliferation kit according to manufacturer's instructions. Briefly, the media was removed and 100 μl of complete phenol red free media, pre-combined with MTS reagent, was added to the cells (20 μl of reagent per 100 μl of media). The plates were read on an ELISA plate reader at 490 nm after a 2 hr incubation in the dark (5% CO2, 37° C.).
(§2) The data (absorption units) were converted to % cell survival by using the untreated controls as the 100% cell survival and the Triton X-100 controls as the 100% cell death. The average absorption value for the latter was subtracted from all the rest of the data in order to get a suitable baseline. The averages were converted to survival and standard error values were obtained for each n value (as a % cell survival). […] Experiments were repeated at least 3 times for each compound tested and a set or an average of the data was plotted and fitted to obtain a dose response curve.
(§3) The cells were recovered by centrifugation (2 min, 2000 rpm), the supernatant was discarded, and the cells were resuspended in complete McCoy's 5A (5 ml). The cells were then counted using a haemocytometer and diluted accordingly. They were plated at 5000 cells/well (200 μl) using attachment factor and incubated overnight at 37° C., 5% CO2 in a humidified atmosphere. U87 is a non-HER2 expressing glioblastoma cell line [Zitron I M et al (2013) BMC Cancer 13:83] and was grown in a similar way, plated at 1000 cells/well (using DMEM media). BT474 is a HER2 expressing breast cancer cell line [Brockhoff G et al (2007) Cell Prolif 40:488-507] and was grown in a similar way, plated at 7500 cells/well (using RPMI media). NCI-N87 is a HER2 expressing gastric cancer cell line [Yamashita-Kashima Y et al (2013) Oncol. Rep 30:1087-93] and was grown in a similar way, plated at 7500 cells/well (using RPMI media).
as §1, with “kit (MTS reagent)” for “kit”
The data (absorption units) were converted to % cell survival by using the untreated controls as the 100% cell survival and the Triton X-100 controls as the 100% cell death. The average absorption value for the latter was subtracted from all the rest of the data in order to get a suitable baseline. The averages were converted to survival and standard error values were obtained for each n value (as a % cell survival).

NCI-N87 cells = assay: Cell killing assay (MTS), NCI-N87 cells; type: cell-based, human; settings: NCI-N87 Cells (HER2++), 96 hours, Table 51
Experimental: as §3
as §1, with “kit (MTS reagent)” for “kit”
as §2, with “dose-response” for “dose response”

SKBr3 cells = assay: Cell killing assay (MTS), SKBr3 cells; type: cell-based, human; settings: SKBr3 Cells (HER2+++), 96 hours, Table 51

CC[C@H](C)[C@@H]([C@@H](CC(=O)N1CCC[C@H]1[C@H](OC)[C@@H](C)C(=O)N[C@@H](Cc1ccccc1)C(=O)O)OC)N(C)C(=O)[C@@H](NC(=O)[C@@H](NC)C(C)C)C(C)C [Free MMAF, monomethyl auristatin F, reference compound] (H-[NMeV]V[Dil][Dolaproine]F-OH)
tumour growth (in words) [1]: grew rapidly

B1: scFv (TCT)-Auristatin F-C5: scFv (TCT) conjugated with Auristatin-F-C5-NHS (compound 88), 30 equivalents, average DAR 8.5 (conjugate)
scFv: SGSGGSGQVQLVQSGAEVKKPGESLKISCKGSGYSFTSYWIAWVRQMPGKGLEYMGLIYPGDSDTKYSPSFQGQVTISVDKSVSTAYLQWSSLKPSDSAVYFCARHDVGYCSSSNCAAWPEYFQHWGQGTLVTVSSGGGGSGGGGSGGGGSQSVLTQPPSVSAAPGQKVTISCSGSSSNIGNNYVSWYQQLPGTAPKLLIYGHTNRPAGVPDRFSGSKSGTSASLAISGFRSEDEADYYCAAWDDSLSGWVFGGGTKLTVLMASMTGGQQMG
binding function against immobilised HER2 (in words) (HER2): verified | time stable in the buffer ([2]; after purification and concentration): several weeks | concentration to which purified conjugates were concentrated ([2]; in buffer after SEC purification): ~600 µg/mL | aggregation by HPLC-SEC (in words) [3]: no aggregation

B2: scFv (TCT1067)-MMAE-PAB-Cit-Val-dPEG9, DAR 9 (conjugate)
scFv: SGSGGSGQVQLVQSGAEVKKPGESLKISCKGSGYSFTSYWIAWVRQMPGKGLEYMGLIYPGDSDTKYSPSFQGQVTISVDKSVSTAYLQWSSLKPSDSAVYFCARHDVGYCTDRTCAAWPEWLGVWGQGTLVTVSSGGGGSGGGGSGGGGSQSVLTQPPSVSAAPGQKVTISCSGSSSNIGNNYVSWYQQLPGTAPKLLIYGHTNRPAGVPDRFSGSKSGTSASLAISGFRSEDEADYYCASWDYTLSGWVFGGGTKLTVLMASMTGGQQMG
modifications: non-natural residues
IC50 μg/ml (U87 cells): 0.1 µg/mL | IC50 (U87 cells; read-out: IC50): 3.57 nM | IC50 μg/ml (NCI-N87 cells): 0.195 µg/mL | IC50 (NCI-N87 cells): 6.95 nM | IC50 μg/ml (SKBr3 cells): 0.04476 µg/mL | IC50 (SKBr3 cells; read-out: IC50): 1.59 nM
